Experiments:
human sperm [1] = experiment: Acrosome reaction of capacitated sperm by FITC/PSA with Hoechst 33258 viability stain, first series; format: cell-based
Protocol: The purified rhZP3 was also applied to test its activity to induce human sperm acrosome reaction. The motile sperm obtained by swim-up procedure were allowed to capacitate in HTF/0.5% HSA for four hours at 37° C. in 5% CO2 in huminified air. The motile sperm concentration used to detect acrosome reaction was set at 2 million/ml. A series of 100 ul of capacitated sperm aliquots with different inducers were prepared in Eppendorf vials and cultured in the incubator in 95% air, 5% CO2, at 37° C. for 30 minutes. The test was conducted as follows: positive control: calcium ionophore A23187 (Sigma) at 5 μM; negative controls: 1) sperm culture medium alone, and 2) protein isolated from the culture media of non-transfected PA-1 cells (NT); test: rhZP3. Triple slides were made for each assay. Hoechst 33258 stain was used for determination of sperm viability. Fluorescein isothiocyanate conjugated Pisum sativum agglutinin (FITC/PSA) (Sigma) staining technique was employed to evaluate the acrosome reaction (Cross et al, 1986). Blind reading was required for evaluation and at least 100˜200 cells from 5 random fields were evaluated per spot on the slide. […] The results were expressed as percentage of acrosome-reacted spermatozoa in the total population counted (Cross, 1986).
In some experiments, Solubilized zona pellucida were used as control to test its function to induce sperm acrosome reaction. The solubilized zona pellucida were prepared according to Franken et al (1996). Ooplasma was removed using a small glass micropipette. A vigorous pipetting action would break their zona causing ooplasma to be spilled into surrounding medium. The chosen amount of zonae was transferred into an eppendorf tube and was centrifuged for 15 minutes at 300×g. Using a steromicroscope, the media were removed with pipette, making sure not to disturb zona. The final result was to remove maximum medium. A chosen volume (depending on the zona concentration needed) of 10 mM HCl was added. Under the microscopic vision, zona/HCl was pipetted up and down until all zona were dissolved. Then 10 mM NaOH of equal volume as the HCl was added and mixed well to obtain the stock zona solution.

[2] = Aggregation of purified glycoprotein on freezing; format: physicochemical; settings: freezing the purified product
From the text: In the zona pellucida, ZP3 associates with ZP2 and ZP1 to form a network structure (Wassarman, 1988). This network structure prevents aggregation of these glycoproteins. However, in solution these glycoproteins tend to aggregate together. This phenomenon has been observed in several recombinant glycoproteins, including ZP3 (Champan and Barratt, 1997). In purifying rhZP3, we have avoided this problem by obtaining a highly purified product, and testing its biological activities within a week-period while maintaining the protein at 4° C. […] This problem becomes worse as larger amounts of the glycoprotein are trying to be produced. Different strategies are being looked into in order to produce and purify large amounts of biologically active rhZP3 in our laboratory.

human sperm [3] = settings: Dong et al 2000; cited from earlier work

B1: rhZP3: recombinant human zona pellucida protein 3 with six-histidine tail, expressed in human ovarian PA-1 cells; secreted glycoprotein of approximately 65 Kd (protein)
chain: QPLWLLQGGASHPETSVQPVLVECQEATLMVMVSKDLFGTGKLIRAADLTLGPEACEPLVSMDTEDVVRFEVGLHECGNSMQVTDDALVYSTFLLHDPRPVGNLSIVRTNRAEIPIECRYPRQGNVSSQAILPTWLPFRTTVFSEEKLTFSLRLMEENWNAEKRSPTFHLGDAAHLQAEIHTGSHVPLRLFVDHCVATPTPDQNASPYHTIVDFHGCLVDGLTDASSAFKVPRPGPDTLQFTVDVFHFANDSRNMIYITCHLKVTLAEQDPDELNKACSFSKPSNSWFPVEGSADICQCCNKGDCGTPSHSRRQPHVMSQWSRSASRNHHHHHH
With B1 the “increase of the percentage of acrosome-reacted sperm from control conditions” value (human sperm [1]; 30 ng/ml, 30 minutes pre-incubation) was 150%, the “% acrosome reacted-sperm” value (human sperm [1]; NT 30 ng/ml, calcium ionophore 5 μM, rhZP3 30 ng/ml, solubilized zona 0.5 ZP/μl, 4 h capacitation, 30 min, mean (± SEM)) was 18.3% and the “aggregation on freezing (in words)” value [2] was “problems of aggregation of the glycoprotein as we attempted freezing the product”. For the same molecule, the “sperm motion parameters, treatment versus control” value (sperm) was “not significantly different” and the “range of maximal effect, acrosome reaction-inducing activity” value (human sperm [3]) was 30-1,000 ng/ml.
